From US20040009502A1 (published 2004)

How the values were obtained:
[1] = biological target: T1, mLATS2b fused to the GAL4 DNA binding domain (pGBKT7-mLATS2b) (mouse, UniProt P04386 1-147 (Saccharomyces cerevisiae entry)); experiment: yeast two-hybrid (growth on quadruple dropout plates)
T1 construct: expressed in yeast AH109; also called clone 3-1; mLATS2/2b

[2] = biological target: T2, mLATS2 fused to the GAL4 DNA binding domain (pGBKT7-mLATS2) (mouse, UniProt P04386 1-147; Q7TSJ6 1-1042); experiment: as above
T2 construct: Made by inserting the Bsm I-Xho I fragment of pcDNA3-mLATS2 into pGBKT7-mLATS2b; also called mLATS2/2b

[3] = biological target: T1, mLATS2b fused to the GAL4 DNA binding …; experiment: yeast two-hybrid
[4] = biological target: T3, mLATS2N96 fused to the GAL4 DNA binding domain (pGBKT7-mLATS2N96) (mouse, UniProt P04386 1-147 (Saccharomyces cerevisiae entry)); experiment: yeast two-hybrid (growth on quadruple dropout plates)
T3 construct: Made by removing the Pst I fragment from pGBKT7-mLATS2b; also called N-terminal 96 amino acids of mLATS2/2b

B1: mRBT1C76 fused to the GAL4 activation domain (pGADT7-mRBT1C76) (other, UniProt P04386 768-881, looked up)
chain: ANFNQSGNIADSSLSFTFTNSSNGPNLITTQTNSQALSQPIASSNVHDNFMNNEITASKIDDGNNSKPLSPGWTDQTAYNAFGITTGMFNTTTMDDVYNYLFDDEDTPPNPKKEPQNEIVSQADPVFLEALSSRYLGDSGLDDFFLDIDTSAVEKDVALPPPEPPHSLFCSPGSWEWNELDHIMEIILGS
notes: PCR product encoding the C-terminal 76 amino acids of mRBT1 cloned into EcoR I and Sma I sites of pGADT7; also called C-terminal 76 amino acids of mRBT1
- binding result [1]: no binding
- binding result [2]: no binding

B2: mouse Replication Protein Binding Trans-Activator (mRBT1) fused to the GAL4 activation domain (pGADT7-mRBT1) (other, UniProt Q9ERC3 1-197, looked up, not shown: large carriers)
chain: MGGLKRKHSDLEEEEEEEKWDWSPTALRSYQQALLRISLDKVQRSLGPRAPSLRRHVLIHNTLQQLQAAIRLAPAPALPPEPLFLGEEDFSLSTTIGSILRELDTSMDEMEPPLNPAASSSPQNEIVSQADPVFLEALSSRYLGDSGLDDFFLDIDTSAVEKDVALPPPEPPHSLFCSPGSWEWNELDHIMEIILGS
- binding result [3]: binds
- binding result [4]: no binding

B3: mRBT1N121 fused to the GAL4 activation domain (pGADT7-mRBT1N121) (other, mouse, UniProt Q9ERC3 1-121, looked up, not shown: large carriers)
chain: MGGLKRKHSDLEEEEEEEKWDWSPTALRSYQQALLRISLDKVQRSLGPRAPSLRRHVLIHNTLQQLQAAIRLAPAPALPPEPLFLGEEDFSLSTTIGSILRELDTSMDEMEPPLNPAASSS
notes: Made by removing the Xho I fragment from pGADT7-mRBT1
- binding result [1]: binds
- binding result [4]: no binding
